From patent US7358040B2, “MRE 11: modulation of cellular proliferation” (Rigel Pharmaceuticals, Incorporated, priority 2001, dated 2008)
Where a chain is given by its changes, count along the chain named. Names and notes keep the numbering of the source.

Key:
Assay type in all cases: cell-based
HeLa cells [1] = test: overexpression / GFP positivity proliferation assay in HeLa cells
Description: (§1) As described below, the present inventors identified MRE11 in a yeast two hybrid assay, using PCNA as bait. Another molecule, NBS1, was identified in the two-hybrid assay as a PCNA-binding protein, as NBS1 binds the mammalian homolog of yeast RAD50, which also binds to MRE11 (see, e.g., Petrini, Am. J Hum. Genet. 64:1264-1269 (1999); Kim et al., J. Biol. Chem. 271:29255-29264 (1996); see also GenBank Accession number XP—034864 for a protein sequence of human RAD50 and Accession number XM—034864 for a nucleic acid sequence of human RAD50; see also Example 1)). NBS1 therefore bound to the RAD50/MRE11 complex, as well as to PCNA. As shown in FIGS. 8-15, inhibition of MRE11 or overexpression of an MRE11 mutant is antiproliferative in tumor cells and HeLa cells but not in normal cells (using, e.g., GFP positivity assays, cell tracker assays, and antisense assays).
(§2) In another embodiment, MRE11 protein is expressed in a cell, and functional, e.g., physical and chemical or phenotypic, changes are assayed to identify MRE11 and modulators of cellular proliferation, e.g., tumor cell proliferation. Cells expressing MRE11 proteins can also be used in binding assays and enzymatic assays. Any suitable functional effect can be measured, as described herein. […]

A549 tumor cells [2] = test: cell tracker assay in A549 tumor cells
Description: as §1, §2

A549 tumor cells [3] = test: overexpression / GFP positivity proliferation assay in A549 tumor cells
Description: as §1, §2

A549 tumor cells [4] = test: bleomycin chemosensitization study in A549 tumor cells
Description: as §1

normal HMEC cells = test: bleomycin chemosensitization study in normal HMEC cells
Description: as §1

HeLa cells [5] = test: bleomycin chemosensitization study in HeLa cells
Description: as §1

normal cells [6] = test: cell tracker assay in normal cells
Description: as §1, §2

normal cells [7] = test: overexpression proliferation assay in normal cells
Description: as §1, §2

B1: GFP-fused MRE11 H129N mutant: GFP-fused dominant negative H129N mutant of MRE11 nuclease, overexpressed in cells for target validation (protein, UniProt P49959 2-708, looked up, variant H129N)
Double-strand break repair …: STADALDDENTFKILVATDIHLGFMEKDAVRGNDTFVTLDEILRLAQENEVDFILLGGDLFHENKPSRKTLHTCLELLRKYCMGDRPVQFEILSDQSVNFGFSKFPWVNYQDGNLNISIPVFSIHGNNDDPTGADALCALDILSCAGFVNHFGRSMSVEKIDISPVLLQKGSTKIALYGLGSIPDERLYRMFVNKKVTMLRPKEDENSWFNLFVIHQNRSKHGSTNFIPEQFLDDFIDLVIWGHEHECKIAPTKNEQQLFYISQPGSSVVTSLSPGEAVKKHVGLLRIKGRKMNMHKIPLHTVRQFFMEDIVLANHPDIFNPDNPKVTQAIQSFCLEKIEEMLENAERERLGNSHQPEKPLVRLRVDYSGGFEPFSVLRFSQKFVDRVANPKDIIHFFRHREQKEKTGEEINFGKLITKPSEGTTLRVEDLVKQYFQTAEKNVQLSLLTERGMGEAVQEFVDKEEKDAIEELVKYQLEKTQRFLKERHIDALEDKIDEEVRRFRETRQKNTNEEDDEVREAMTRARALRSQSEESASAFSADDLMSIDLAEQMANDSDDSISAATNKGRGRGRGRRGGRGQNSASRGGSQRGRADTGLETSTRSRNSKTAVSASRNMSIIDAFKSTRQQPSRNVTTKNYSEVIEVDESDVEEDIFPTTSKTDQRWSSTSSSKIMSQSQVSKGVDFESSEDDDDDPFMNTSSLRRNRR
modifications: GFP fusion
notes: GFP-fused dominant negative H129N mutant of MRE11 nuclease, overexpressed in cells for target validation
antiproliferative activity on overexpression (HeLa cells [1]): antiproliferative
antiproliferative activity, cell tracker assay (A549 tumor cells [2]): antiproliferative
antiproliferative activity on overexpression (A549 tumor cells [3]): antiproliferative

B2: GFP-MRE11 H217Y mutant: GFP-fused MRE11 H217Y mutant overexpressed in cells (protein, UniProt P49959 2-708, looked up, variant H217Y)
Double-strand break repair …: B1 Double-strand break repair … with N128H, H216Y
modifications: GFP fusion
notes: GFP-fused MRE11 H217Y mutant overexpressed in cells
sensitivity to bleomycin treatment on overexpression (A549 tumor cells [4]; A549 tumor cells): enhances sensitivity
sensitivity to bleomycin treatment on overexpression (normal HMEC cells): does not enhance sensitivity
sensitivity to bleomycin treatment on overexpression (HeLa cells [5]): enhances sensitivity

B3: MRE11 H129N mutant: MRE11 H129N mutant expressed using IRES GFP (not fused) (protein, UniProt P49959 2-708, looked up, variant H129N)
Double-strand break repair …: B1 Double-strand break repair …
antiproliferative activity, cell tracker assay (A549 tumor cells [2]): antiproliferative

B4: MRE11 wild type: wild-type human MRE11 protein (SEQ ID NO:2) overexpressed in cells (protein, listed as Homo sapiens)
chain: MSTADALDDENTFKILVATDIHLGFMEKDAVRGNDTFVTLDEILRLAQENEVDFILLGGDLFHENKPSRKTLHTCLELLRKYCMGDRPVQFEILSDQSVNFGFSKFPWVNYQDGNLNISIPVFSIHGNHDDPTGADALCALDILSCAGFVNHFGRSMSVEKIDISPVLLQKGSTKIALYGLGSIPDERLYRMFVNKKVTMLRPKEDENSWFNLFVIHQNRSKHGSTNFIPEQFLDDFIDLVIWGHEHECKIAPTKNEQQLFYISQPGSSVVTSLSPGEAVKKHVGLLRIKGRKMNMHKIPLHTVRQFFMEDIVLANHPDIFNPDNPKVTQAIQSFCLEKIEEMLENAERERLGNSHQPEKPLVRLRVDYSGGFEPFSVLRFSQKFVDRVANPKDIIHFFRHREQKEKTGEEINFGKLITKPSEGTTLRVEDLVKQYFQTAEKNVQLSLLTERGMGEAVQEFVDKEEKDAIEELVKYQLEKTQRFLKERHIDALEDKIDEEVRRFRETRQKNTNEEDDEVREAMTRARALRSQSEESASAFSADDLMSIDLAEQMANDSDDSISAATNKGRGRGRGRRGGRGQNSASRGGSQRGRADTGLETSTRSRNSKTAVSASRNMSIIDAFKSTRQQPSRNVTTKNYSEVIEVDESDVEEDIFPTTSKTDQRWSSTSSSKIMSQSQVSKGVDFESSEDDDDDPFMNTSSLRRNRR
modifications: human MRE11 meiotic recombination 11 homolog A
selective sensitization after bleomycin treatment (A549 tumor cells [4]; tumor cells expressing the protein, 48 hours after bleomycin treatment): no selective sensitization
antiproliferative activity, cell tracker assay (normal cells [6]): no antiproliferative activity
antiproliferative activity on overexpression (normal cells [7]): not antiproliferative
